{"source": "the DeepSol protein solubility set"}
{"experiment": "soluble on expression in E. coli; label from the status in PepcDB or PDB records"}
{"sequence": "MKIAIAGAGAMGSRLGIMLHQGGNDVTLIDQWPAHIEAIRKNGLIADFNGEEVVANLPIFSPEEIDHQNEQVDLIIALTKAQQLDAMFKAIQPMITEKTYVLCLLNGLGHEDVLEKYVPKENILVGITMWTAGLEGPGRVKLLGDGEIELENIDPSGKKFALEVVDVFQKAGLNPSYSSNVRYSIWRKACVNGTLNGLCTILDCNIAEFGALPVSESLVKTLISEFAAVAEKEAIYLDQAEVYTHIVQTYDPNGIGLHYPSMYQDLIKNHRLTEIDYINGAVWRKGQKYNVATPFCAMLTQLVHGKEELLGAK", "soluble on expression in E. coli": "soluble"}
{"sequence": "MDGPKPNLASAASMESLNSVSSEATNPSQVRTLFVSGLPMDAKPRELYLLFRGCRGYEGALLKMTSKNGKPTSPVGFVTFLSQQDAQDARKMLQGVRFDPECAQVLRLELAKSNTKVARPKQSPPPPQHAALSAAAAGVPQFLAPMQHDLLLDPQSAALFNEQQLLALSLPHLHAAQALQAAYMPASALQQYSQNQLFAAAQMHPAAAAAASLQHSQQASQASTSACSTLFVANLSAEVNEDTLRGVFKAFSGFTRLRLHNKNGSCVAFVEYSDLQKATQAMISLQGFQITANDRGGLRIEYARNKMADVNG", "soluble on expression in E. coli": "soluble"}
{"sequence": "MLRNKAFVVRLYPNAAQAERINRTLGCARFVYNHFLARRIESYRQDGKGMIYAATDKALTLLKREEGTAWLAEVDKFALQQSLRDLERAYQNFFRTAKKSGKKVGFPKFKKKRTGEAYRTQFTNNNIEIGEGKLKLPKLGWVKTRGQRDMQGKILNVTVRRIHEGHYEASVLCEVEIPYLPAAPKFAAGVDVGIKDFAIVTDGKGEFEHHANPKYYRSSLRRLRKAQKTLSRRKKGSARYGRAKTTLARIHKRVANKRQDFIHKLTTSLVREYEITCTEHLKPDNMRKNRRLALSVSDAGWGEFIRQLEYKATWYGRLVSKISPYFPSSQICHDCGFKNPAVKNLAVREWTCPNCGETHDRDENAALNIRREGLVAAGMSDTQNAHGDCIRPTSVGSGLRSENHATSVVLEHHHHHH", "soluble on expression in E. coli": "soluble"}
{"sequence": "MSEPLLRGLAAGDPPSATGPVTGSADKVADVLIVGGGLVGGTLACALAEKGVSVVVIDGEDPEALLAAGYDGRCSAIALACQRLLDTIGLWDLLGGESQPILDIRVVDGGSPLFLHYAQAEAQGPMGYMVENRLLRQAILTRLGRLPAATLLAPARMTALRRDLDGVSATLSDGQTVRARLVVGADGRRSQVRESAGIGIRTLGYGQTAIVLTVEHERSHRGCAVEHFLPAGPFAILPMPGNRSSLVWTERSDLVPGLLALPAEHFQAELERRFGDHLGWVRPVGPRFSYRLTLQAANRYVDHRLALVGDAAHGMHPVAGQGMNYGLRDVAVLAERLVAAQRLGLDPGAPALLAEYEALRRPDNLLMLAITDALVRLFSNDIAPVALARRLGIGAVERMGPLKRLFMRHAMGTLKLGPEPPRLMRGVPLLEHHHHHH", "soluble on expression in E. coli": "soluble"}
{"sequence": "EKFPLVLMLEPTHLCNLACSGCGRIREYADTIQQMMSLEECLRSVDECPAPVVTITGGEPFLYTHIYELIPEVLDRGKHVYLCTNGLLLEKALENVKVHPNFYLNVHMDGLEETHDRILERKGTFKVAIEGIRKAKAKGFRVCTNTTIFKDTDLVEIEMLFSLLTDLGVDGILVAPGFDYEAVG", "soluble on expression in E. coli": "not soluble"}
{"sequence": "MSNGQLVSQVTVGHDKPLDREKVCPMLLRVFVANNRHNPMSEYNSRNGGSVPPSELQMHTWMDCSLRELTSLIKEVNPDARRKGTTFDFAIVQADRGSPRYILRDVGNTTNGERGIDDNKTLQQCKFEVGDFVDVAISLPSQGRRFNNREQGDRFDHRQRQRSPIR", "soluble on expression in E. coli": "not soluble"}
{"sequence": "QQKRAFEYEIRFYTGNDPLDVWDRYISWTEQNYPQGGKESNMSTLLERAVEALQGEKRYYSDPRFLNLWLKLGRLCNEPLDMYSYLHNQGIGVSLAQFYISWAEEYEARENFRKADAIFQEGIQQKAEPLERLQSQHRQFQARVSRQTLLALEKEEEEEVFESS", "soluble on expression in E. coli": "soluble"}
{"sequence": "MGSDKIHHHHHHMNDIKMIRIGITGGTGFLGNRLVELLSKTNTPITCLTRESSNIETIEDKVKVIKGDLSNLESLEDFVKGQDVIVHLAAQVSRTTKKEYYQSNVLGTENLCKAINQYNPECRLINCSSIAAYRIKGWCKLQFTDYAKSKLSADRVVDSYMKTIKATTIIPGIIYGAGNNAFISAIIENLEKGKLFFAKGGEKFAPLSYIDDLCDLFIRAIYNEESVGNKYFGIKYSERGIHDFIRIIASKTYNKAPDAVLSKNKLMAKAVFWQFVYSFFKIKKAPTLSIRMVDIMSINYSLSEEQRTNNLGWEPSVDMEEGVDNALLSYNLKKDSTNRS", "soluble on expression in E. coli": "not soluble"}
{"sequence": "GSQVQLVESGGGLVQAGGSLRLSCAASGYAYTYIYMGWFRQAPGKEREGVAAMDSGGGGTLYADSVKGRMTISRDKGKNTVYLQMDSMKPEDTATYYCAAGGYELRDRTYGQWGQGTQVTVSS", "soluble on expression in E. coli": "soluble"}
